Experimental data reported in US7691579B2, “Methods and compositions for producing an enhanced immune response to a human papillomavirus immunogen” (priority 2005, dated 2010).
Several values for one entry are separate records, joined by “and”; a condition that tells them apart may be missing. Equal values may be shown once.

B1: GM-CSF: murine granulocyte/macrophage colony stimulating factor (Preprotech) (protein, UniProt P01587 18-141, looked up)
Granulocyte-macrophage …: APTRSPITVTRPWKHVEAIKEALNLLDDMPVTLNEEVEVVSNEFSFKKLTCVQTRLKIFEQGLRGNFTKLKGALNMTASYYQTYCPPTPETDCETQVTTYADFIDSLKTFLTDIPFECKKPGQK

Columns and labels:
HPV16 pseudovirus = experiment: Quantitative HPV16 pseudovirus neutralization assay with sera of vaccinated rabbits; format: in vivo; settings: individual vaccinated rabbits
From the text: Development of Antibody Response to L1-VLP: To analyze the effect of the GM-CSF/anti-CD40 antibody combination on antibody response, an ELISA assay was employed to measure the titre of anti-L1-VLP antibodies in mice immunized with the chimeric L1-VLP-L2-E2-E7 construct, with or without the GM-CSF/anti-CD40 antibody combination. Both groups of mice produced high titers of anti-L1 VLP antibodies (FIG. 9). There is no detectable anti-L1 VLP antibody in the serum of mice immunized with E7 peptide in combination with GM-CSF and anti-CD40 in IFA, as expected. […] To confirm the prophylactic potential of the chimeric L1-VLP-L2-E7-E2 construct, the anti body titers raised against the chimeric L1-VLP-E7 E2 construct and the L1-VLPs were compared using a recently developed quantitative HPV16 pseudovirus neutralization assay. […]
To test whether the combination of VLP-E7E2 with immune-modulators affects the antibody response, the titer of anti-L1-VLP antibodies was evaluated by ELISA. […] To confirm the prophylactic potential of the chimeric VLPs, we compared the antibody titers raised against the chimeric VLP-E7E2 and wild type VLPs, using a recently developed quantitative HPV16 pseudovirus neutralization assay. […]

[1] = tested on: C1R.AAD target cells pulsed with E7 11-20 and E7 86-93 peptides; experiment: CTL assay (51Cr release) with spleen cells of immunized AAD mice, response to E7; format: in vivo, HLA-A2 transgenic mice (AAD); settings: co-injected in aqueous solution
Protocol: (§1) Immunization: Mice were immunized subcutaneously at the base of the tail with the chimeric VLPs. GM-CSF (Preprotech, Rocky Hill, N.J.) was given the day before and the same day as the VLP injection. Anti-CD40 (SouthernBiotech, Birmingham Ala.) was given with the VLP. Mice were also immunized with 50 nmoles of peptide in incomplete Freund's adjuvant (IFA) with or without GM-CSF (5 μg/mouse) and anti-CD40 (10 μg/mouse). All vaccines were prepared immediately prior to injection. Each group had 4 mice, and the pooled spleen cells from four mice were used for assays. 10 μg of VLP-E7E2 was given to a mouse. The MW of the VLP-E7E2 is about 5280 Kd (72×L1@55 Kd=3960 Kd, and 12×L2E7E2@110 kd=1320 Kd). The number of moles of VLP-E7E2 in 10 μg of total protein is about […].
(§2) CTL assay: Two (or three) weeks after immunization, spleens were aseptically removed and single cell suspensions are prepared. […] Cytolytic activity of cells is measured by a 4-h assay with ^51Cr-labeled EL-4 or C1R.AAD target cells in triplicate wells. Percent ^51Cr release is calculated as 100×(experimental release-spontaneous release)/(maximum release-spontaneous release). Maximum release is determined from supernatants of cells that are lysed by addition of […]. Spontaneous release is determined from target cells culture in medium. Data are expressed as an average from triplicate wells. […]

CD11c+ dendritic cells = experiment: FACScan analysis of dendritic cells in draining lymph nodes of immunized mice; format: in vivo, HLA-A2 transgenic mice (AAD); settings: in VLP-E7E2 immunized mice, aqueous solution
Protocol: Draining lymph nodes were collected six days after immunization for FACScan analysis. Mice are immunized with 10 μg of chimeric VLP-E7 with or without GM-CSF or an anti-CD40L antibody. Draining inguinal lymph nodes are collected one week after immunization for FACScan analysis. The immunization protocols employed are as follows: Panel A—VLP-E7; Panel B—VLP-E7F+GM-CSF; Panel C—VLP-E7+anti-CD40 antibody; Panel D—VLP-E7+GM-CSF+anti-CD40 antibody. For Data 003, 010, 017, and 024, the percentage of gated is the sum of the number from the upper left and upper right quadrants. For the rest of the data, the percentage of gated is the number from the upper right quadrant indicating the CD80, CD 86 and CD40 positive cells.
Flow cytometric analysis and Abs: Lymph node cells (1×10^6) are taken from mice one week after immunization. […] Data files are analyzed using CellQuest software (BD Biosciences, Mountain View, Calif.).
DCS Play An Important Role In VLP-E7E2/GM-CSF/Anti-CD40 Induced CTL Response In Vivo: It is known that GM-CSF and anti-CD40 play important roles in DC activation (Gurunathan, S. et al. 1998 J. Immunol. 161:4563-4571; Ahlers, J. D. et al. 1997 PNAS USA 94:10856-10861). […] In the Examples reported herein, the phenotypic changes of DC in the draining lymph nodes (DLN) of vaccinated mice were analyzed. […]

[2] = tested on: EL-4 target cells pulsed with E7 49-57 peptides; experiment: CTL assay (51Cr release) with spleen cells of immunized C57BL/6 mice; format: in vivo; settings: given in aqueous solution with VLP-E7E2
Protocol: as §1, §2

Row | Molecule | neutralizing titers (HPV16 pseudovirus; listed as L1-VLP construct) | neutralizing titers (HPV16 pseudovirus; listed as wild type VLPs) | effect of co-injection on the VLP-E7E2-induced CTL response to E7 [1] | recruitment or activation of the DCs (CD11c+ dendritic cells) | effect on the VLP-E7E2 induced CTL response [2]
1 | L1-VLP: VLP of the full length L1 capsid protein of HPV16, control | 40,960 and 163,840 | 163,840 | – | – | –
2 | B1 | – | – | no effect | no effect | no effect
